The record followed here is US20220144911A1 (UAB RESEARCH FOUNDATION, published 2022).

For test [1], the target named is T1, cellular RhIL10 (rhesus macaque, UniProt P51496 19-178).
T1 construct: also called Rhesus IL10
In words: SPR (Biacore T-200), RhIL10R1-FC captured by anti-human FC, IL10 as analyte, 1:1 model. A general note: Surface plasmon resonance follows binding to a sensor surface in real time, without labels.
Method: (§1) Following the association phase, dissociation was monitored for 720 seconds. The binding parameters were extracted from the sensorgrams by fitting the data to a 1:1 binding model.
(§2) Surface Plasmon Resonance (SPR): SPR data collection and analysis was performed using a Biacore T-200 (GE healthcare). […] Sensorgrams were fit to appropriate models using Biacore T-200 evaluation software version 1.0.

A further test has as its target RhCMVIL10 (rhesus cytomegalovirus (printed as …)).
In test [2] the target is T1, cellular RhIL10. Briefly: SPR, ratio of KD values.
Method: as §1, §2

Chain of RhCMVIL10 (rhesus cytomegalovirus (printed as …)) (P51496 whole entry): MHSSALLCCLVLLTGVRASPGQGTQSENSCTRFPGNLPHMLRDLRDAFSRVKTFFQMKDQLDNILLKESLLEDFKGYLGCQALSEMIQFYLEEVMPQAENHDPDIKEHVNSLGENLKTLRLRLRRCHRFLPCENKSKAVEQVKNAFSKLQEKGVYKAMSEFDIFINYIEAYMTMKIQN
T1 sequence (P51496 19-178 limits assumed): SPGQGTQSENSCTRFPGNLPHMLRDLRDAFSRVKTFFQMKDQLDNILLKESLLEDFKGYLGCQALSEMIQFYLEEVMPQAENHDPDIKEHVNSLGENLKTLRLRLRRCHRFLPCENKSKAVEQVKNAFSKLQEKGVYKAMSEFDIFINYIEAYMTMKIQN

B1: RhIL10R1-FC-SLS (Fc fusion)
chain: AHGTELPSPPSVWFEAEFFHHILHWTPIPNQSESTCYEVALLRYGTGRWNSISNCSQALSYDLTAVTLDLYRSNGYWARVRAVDGSRHSNWTVTNTRFSLDEVTLTVGSVKLEIHNGFILGKIQPPRPKMAPANDTYESIFRHFREYEIAIRKVPGNFTFTHKKVKHENFSLLTSGEVGEFCVQVKPSVTSRTNKGMWSKEECVSLTRQYFTVTNVGSGGGGPSVFLFPPKPKDTLMISRTPEVTCVVVDVSQEDPDVKFNWYVNGAEVHHAQTKPRETQYNSTYRVVSVLTVTHQDWLNGKEYTCKVSNKALPAPIQKTISKDKGQPREPQVYTLPPSREELTKNQVSLTCLVKGFYPSDIVVEWESSGQPENTYKTTPPVLDSDGSYFLYSKLTVDKSRWQQGNVFSCSVMHEALHNHYTQKSLSLSGGCGTPGK
notes: also called RhIL10R1-SLS; Rh10R1-FC
As usually defined, the Kd is the concentration at which binding is half-saturated. Lower therefore signals a tighter complex. The koff is a measure of how fast the partners let go of each other. By kon is commonly meant the second-order rate constant of association. Lower therefore signals slow association. In the test with cellular RhIL10 [1], B1 registered a Kd of 0.136 nM, a koff of 0.000454 s⁻¹ and a kon of 3.35e+06 M⁻¹ s⁻¹. For the same molecule, in the test with RhCMVIL10, the Kd came out at 0.0724 nM, the koff is 0.00017 s⁻¹ and the kon is 2.35e+06 M⁻¹ s⁻¹. Besides, in the test with cellular RhIL10 [2], the “fold greater affinity than 1F11” value is 4.8 fold.
